Data from patent US7166733B2, “O,O'-Amidomalonate and N,O-Amidomalonate platinum complexes” (priority 2000, dated 2007).
Where “and” joins values, the source holds several entries; their conditions need not be identical. Identical values can stand only once.

Tests used:
[1] = Percent Pt released versus pH over time in citrate PBS; format: physicochemical; details: 37° C.
Protocol: A stock solution of citrate PBS that was 10 mM in citrate, 20 mM in phosphate, and 100 mM in NaCl was prepared and split into bottles which were then adjusted to the desired pH. The bottles were warmed to 37° C. in an oven and poly(HPMA)-GFLG-Ama=Pt(NH3)2, N,O-chelate, ˜20 kDa, was added to give a concentration of approximately 2 mg of polymer platinum conjugate per mL buffer. The mixtures were well mixed to give colorless solutions. At the indicated times, three approximately 2.5 mL aliquots were removed from the solution at each pH and transferred to previously washed YM-3 ultracentrifuge devices (Amicon) and spun at 5000 RCF and 37° C. for 50 min. Once all samples for all time points have been collected and prepared, the filtrates and stock solutions are analyzed against Pt standards (0–10 ppm) by ICP-OES at the platinum emission line of 214.42 nm. For each time point and at each pH, three samples were prepared and analyzed.

[2] = Platinum release from PBS; format: physicochemical; details: 37° C.
Protocol: The percent of small platinum species released over time was measured by dissolving about 30 mg of the polymer-platinum conjugate in 15 mL of phosphate buffered saline (10 mM phosphate, 123 mM Cl^−) and incubating the solution at 37° C. in a water bath. At indicated times, 2.0 mL aliquots were transferred to a centrifugal filter with a 3 kDa nominal molecular weight cutoff (Centricon YM-3 from Millipore) and spun until >1.5 mL of filtrate had accumulated. The timed filtrates and the original solution were analyzed for platinum by ICP-OES. The percent of small Pt species released was determined using the formula: ((ppm Pt in filtrate)/(ppm Pt in stock solution))×100.

Bl6FI0 melanoma cells = assay: Clonogenic (colony-formation) assay; format: cell-based, murine; details: 7 days incubation
Protocol: The relative cytotoxic activity of various O,O′—Pt chelate analogs were evaluated in vitro by means of a clonogenic (colony-formation) assay employing a tissue culture of Bl6FI0 melanoma cells. In this way, the activity of the analogs was compared to that of cisplatin and carboplatin. The effect of conversion to an N,O—Pt chelate was also evaluated. Briefly, cells were seeded into culture dishes and allowed to attach. The cultures were incubated for 7 days in medium containing the desired concentration of the test agent. After fixation, the number of cell clusters containing >50 cells was scored as a colony. Each concentration of test agent was assayed in triplicate. The mean number of colonies in each of the triplicate dishes was divided by the mean number of colonies in the control (no test agent) dishes to obtain a percent survival value for each concentration of test agent. The IC50 (concentration resulting in 50% inhibition of growth) of each of the agents was determined by linear regression analysis using the data values directly above and below the 50% survival point.

[3] = Single-dose IV maximum tolerated dose study; format: in vivo; details: mice, highest dose with no drug-induced deaths
Text: For these studies, the MTD was defined as the highest dose evaluated in which no mouse deaths resulted from drug-induced toxicity.

Substance: poly(HPMA)-GFLG-Ama=Pt(NH3)2, N,O—Pt chelate [Example 4]
- percent Pt released ([1]; pH 3.4, citrate PBS, 1 h): 2.0%
- percent Pt released ([1]; pH 3.4, citrate PBS, 2 h): 4.2 ± 0.1%
- percent Pt released ([1]; pH 3.4, citrate PBS, 4 h): 6.6%
- percent Pt released ([1]; pH 3.4, citrate PBS, 8 h, 100% N,O-chelate, approx. 20 kDa): 12% and 12.0 ± 0.1%
- percent Pt released ([1]; pH 3.4, citrate PBS, 24 h, 100% N,O-chelate, approx. 20 kDa): 30% and 29.1 ± 3.9%
- percent Pt released ([1]; pH 4.4, citrate PBS, 1 h): 0.9 ± 0.1%
- percent Pt released ([1]; pH 4.4, citrate PBS, 2 h): 1.9%
- percent Pt released ([1]; pH 4.4, citrate PBS, 4 h): 3.3 ± 0.4%
- percent Pt released ([1]; pH 4.4, citrate PBS, 8 h): 5.1 ± 1.2%
- percent Pt released ([1]; pH 4.4, citrate PBS, 24 h): 17.0 ± 3.6%
- percent Pt released ([1]; pH 5.4, citrate PBS, 1 h): 0.5%
- percent Pt released ([1]; pH 5.4, citrate PBS, 2 h): 0.9 ± 0.08%
- percent Pt released ([1]; pH 5.4, citrate PBS, 4 h): 1.4 ± 0.2%
- percent Pt released ([1]; pH 5.4, citrate PBS, 8 h): 2.6 ± 0.4%
- percent Pt released ([1]; pH 5.4, citrate PBS, 24 h): 7.3%
- percent Pt released ([1]; pH 6.4, citrate PBS, 1 h): 0.4%
- percent Pt released ([1]; pH 6.4, citrate PBS, 2 h): 0.7 ± 0.07%
- percent Pt released ([1]; pH 6.4, citrate PBS, 4 h): 0.9 ± 0.06%
- percent Pt released ([1]; pH 6.4, citrate PBS, 8 h): 1.3 ± 0.1%
- percent Pt released ([1]; pH 6.4, citrate PBS, 24 h): 2.7 ± 0.1%
- percent Pt released ([1]; pH 7.4, citrate PBS, 1 h): 0.36 ± 0.01%
- percent Pt released ([1]; pH 7.4, citrate PBS, 2 h): 0.5 ± 0.07%
- percent Pt released ([1]; pH 7.4, citrate PBS, 4 h): 0.7 ± 0.04%
- percent Pt released ([1]; pH 7.4, citrate PBS, 8 h): 0.9 ± 0.02%
- percent Pt released ([1]; pH 7.4, citrate PBS, 24 h): 1.6 ± 0.0%
- percent Pt released ([1]; pH 8.2, citrate PBS, 1 h): 0.39 ± 0.0%
- percent Pt released ([1]; pH 8.2, citrate PBS, 2 h): 0.7 ± 0.08%
- percent Pt released ([1]; pH 8.2, citrate PBS, 4 h): 0.7 ± 0.04%
- percent Pt released ([1]; pH 8.2, citrate PBS, 8 h): 0.8 ± 0.16%
- percent Pt released ([1]; pH 8.2, citrate PBS, 24 h): 1.8 ± 0.02%
- Pt release in PBS ([2]; 3 hours): 0.6%
- Pt release in PBS ([2]; 24 hours): 2.0%
- IC50 (Bl6FI0 melanoma cells): 3.4 µM
- maximum tolerated dose (MTD) [3]: 400 mg PVkg
